# Test results as given in patent US20030003461, “Truncation selex method” (Gilead Sciences, Inc., published 2003).
# Target: VEGF (Homo sapiens, UniProt P15692-4 P15692-4:27-191)
# Experiment: filter; phenotype 5: non-binding with or without 3' fixed sequence
# Details: tags: recombinant human, R&D Systems; chain copies: 2
# Sequence of VEGF (P15692 other isoform, or with tags, fused parts or gaps): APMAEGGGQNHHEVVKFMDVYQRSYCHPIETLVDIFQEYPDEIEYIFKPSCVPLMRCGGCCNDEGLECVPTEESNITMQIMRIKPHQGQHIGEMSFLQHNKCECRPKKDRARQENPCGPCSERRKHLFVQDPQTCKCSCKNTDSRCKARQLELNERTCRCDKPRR
binder,measurement,value
"GGGAGGAAGAAUUGGAAACAUUGCUCGUCAGACGACUCGCCCGA (ssRNA, 2'-F pyrimidines) [T1-11]",binding result,no binding
